# Test results published in patent publication US20040038861A1, “Methods and compositions for normalizing lipid levels in mammalian tissues” (priority 2001, published 2004).
# T1: ramp 1/C1ins− receptor (Mus musculus, UniProt Q60755+Q9WTJ5)
# T1 construct: expressed in transfected cells; host or cells: L6 myoblasts (ATCC), transient co-transfection of pcDNA3.1 plasmids
# T1 sequence (Q60755 42-496 isoform Q60755-2 limits assumed): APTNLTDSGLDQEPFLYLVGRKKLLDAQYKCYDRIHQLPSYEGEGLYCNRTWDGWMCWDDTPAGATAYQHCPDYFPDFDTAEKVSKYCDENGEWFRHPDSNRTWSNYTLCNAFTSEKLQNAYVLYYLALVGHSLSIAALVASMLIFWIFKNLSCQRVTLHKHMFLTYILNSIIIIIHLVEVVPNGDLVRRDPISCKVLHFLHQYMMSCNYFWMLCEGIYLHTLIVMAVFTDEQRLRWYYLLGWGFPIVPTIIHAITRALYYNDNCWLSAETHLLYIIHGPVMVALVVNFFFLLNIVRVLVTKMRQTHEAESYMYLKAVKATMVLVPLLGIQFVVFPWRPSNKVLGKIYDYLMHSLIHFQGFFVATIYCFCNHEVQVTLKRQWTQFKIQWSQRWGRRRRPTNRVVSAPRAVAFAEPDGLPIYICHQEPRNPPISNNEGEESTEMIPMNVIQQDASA
# T1 sequence (Q9WTJ5 27-148 partner): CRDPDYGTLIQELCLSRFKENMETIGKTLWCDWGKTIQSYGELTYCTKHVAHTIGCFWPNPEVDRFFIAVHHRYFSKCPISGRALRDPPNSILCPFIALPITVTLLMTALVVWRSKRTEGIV
# T2: murine ramp 1/C1ins- receptor (murine, UniProt Q60755)
# T2 sequence 1: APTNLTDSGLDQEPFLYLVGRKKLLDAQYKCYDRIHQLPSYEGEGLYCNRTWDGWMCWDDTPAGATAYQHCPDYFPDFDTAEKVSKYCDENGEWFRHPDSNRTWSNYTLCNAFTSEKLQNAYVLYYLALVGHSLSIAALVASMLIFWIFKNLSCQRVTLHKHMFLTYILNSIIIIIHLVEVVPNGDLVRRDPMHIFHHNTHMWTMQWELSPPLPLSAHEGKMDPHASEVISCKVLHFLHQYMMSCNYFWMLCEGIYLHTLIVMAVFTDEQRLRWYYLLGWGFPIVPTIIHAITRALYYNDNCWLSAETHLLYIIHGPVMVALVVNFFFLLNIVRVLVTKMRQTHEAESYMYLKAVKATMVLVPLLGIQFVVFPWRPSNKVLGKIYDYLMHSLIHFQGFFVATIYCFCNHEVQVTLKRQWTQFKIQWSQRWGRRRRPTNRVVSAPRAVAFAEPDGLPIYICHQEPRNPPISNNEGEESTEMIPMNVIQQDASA
# T2 sequence 2: T1 sequence (Q9WTJ5 27-148 partner)
# B1: ^8,37rat CGRP-1 (peptide)
# peptide: VTHRLAGLLSRSGGVVKDNFVPTNVGSEAF
# What was measured:
# [1] = biological target: metabolic amylin receptor
# [2] = biological target: high affinity CGRP receptor
# [3] = biological target: metabolic amylin receptor; remark: listed apart in the source
# [4] = biological target: high affinity CGRP receptor; remark: listed apart in the source
# [5] = biological target: high affinity CGRP receptor; remark: listed apart in the source
# [6] = biological target: metabolic amylin receptor; remark: listed apart in the source
# soleus muscle [7] = test: cAMP content of isolated soleus muscle from normal fed rats; format: cell-based, rat; details: normal fed; 10-fold molar excess of antagonist; CGRP alone 6.9±0.8
# Protocol: (§1) Soleus muscle preparation. All experiments were performed according to protocols approved by the Institutional Animal Ethics Committee. 5-6 week-old male Wistar rats (160 g) were kept on a 12:12-h light/dark cycle, and fed and watered ad libitum. Animals were anaesthetised with 50 mg/kg Nembutal (pentobarbitone sodium), then sacrificed by cervical dislocation. Soleus muscles were dissected under oxygenated KHB (118 mM NaCl, 4.75 mM KCl, 1.2 mM MgSO4, 24.8 mM NaHCO3, 1.2 mM KH2PO4, 2.54 mM CaCl2, 10 mM glucose, pH 7.4) and teased into halves, then incubated as described below.
# (§2) For the measurement of cAMP in muscle, isolated soleus strips were incubated with stated concentrations of peptides, then lyophilized and deproteinized. Each strip was placed in 400 μl of 0.5 M HClO4 with 5 mM EDTA (phosphodiesterase inhibitor) and sonicated three times in 20 s bursts. Tubes were heated for 3-5 min in boiling water to coagulate protein, then centrifuged (12,000 g, 4° C., 2 min). Supernatant (300 μl) was taken and the pH adjusted to 7.0 with 75 μl of 2 M NH4OH. The samples were refrigerated (4° C., 2 h) to precipitate proteins, then centrifuged under the same conditions as above and 50 μl taken for cAMP measurement.
# ramp 1/C1ins− receptor = biological target: T1, ramp 1/C1ins− receptor; test: cAMP production in L6 myoblasts co-transfected with ramp 1 and C1ins−; format: cell-based, murine; details: 5 μM antagonist; agonist 10 pM to 100 nM
# Protocol: Transfection of L6 myoblasts and cos-7 cells, and analysis of radioligand binding. L6 myoblasts and cos-7 cells were obtained from ATCC. Both cell lines were cultered in Dulbecco's modified Eagle's medium (DMEM; Gibco/BRL, high glucose) supplemented with 10% fetal calf serum (Gibco/BRL, Gaithersburg, Md.), L-glutamine (2 mM), penicillin (100 U/ml; Sigma), streptomycin ([…]; Sigma), saline (0.85%), under 5% CO2/95% air at 37° C. The day before transfection, cells were trypsinised and seeded into six-well plates at a density of 2.9×10^5 cells/well in the same medium. For transfection, cells were incubated with a mixture comprising 1 μg each of Qiagen-purified (Qiagen, Valencia, Calif.) plasmids containing C1ins− with either ramp 1 or ramp 3, and Fugene reagent (6 μl; Boehringer Mannheim) in Opti-Mem I medium (Gibco/BRL). The complex was added with serum to cells, which were incubated for a further 48 h.
# Determination of cAMP in cultured cells and soleus muscle strips. cAMP concentration was measured in cells seeded in six-well plates and transfected as described. Following aspiration, cells were incubated for 15 min at room temperature in the presence of stated concentrations of ligands in binding buffer. Isobutylmethylxanthine (Sigma) was added to a final concentration of 0.5 mM together with stated concentrations of peptides, and the reaction terminated by aspiration. Cells were washed with 0.5 ml ice-cold TE buffer (10 mM Tris/HCl, 1 mM EDTA, pH 7.6) and rapidly transferred to eppendorf tubes in 1 ml of the same buffer, then boiled for 5 min. Following centrifugation at 12,000 g for 5 min at 4° C., then cooling on ice, duplicate 50 μl aliquots were analyzed for cAMP using an assay system based on competitive binding (Arnersham Pharmacia) according to the manufacturer's instructions.
# soleus muscle [8] = test: Lipid metabolites (free fatty acid, glycerol, triglyceride; enzymatic analysis) in isolated soleus muscle from normally fed rats; format: cell-based, rat; details: 1 h
# soleus muscle [9] = test: cAMP content of isolated soleus muscle from high fat-fed rats; format: cell-based, rat
# Protocol: as §1, §2
# soleus muscle [10] = test: Glucose transport (2-deoxy-D-glucose uptake) in incubated soleus muscle strips; format: cell-based, rat; details: antagonist 1 μM and 10 μM; without antagonist 19.5±3.6
# Protocol: as §1
# Determination of rates of glucose transport in incubated soleus muscle strips. 4-5 muscle strips were added to each flask, which contained 10 ml DMEM. They were pre-incubated with hormones as indicated for 30 min at 30° C. in a shaking water bath, after which 5 μl of 2[^3H]DOG (0.5 μCi/ml) and 5 μl D[^14C(U)]sorbitol (0.05 μCi/ml) were added, then incubated for another 30 min; RIA grade BSA was added to 0.9% (w/v) to prevent non-specific binding of insulin to flasks. Following incubation, muscle strips were transferred to ice-cold KHB for 5-10 min to remove excess [^3H]DOG and [^14C]sorbitol. They were then blotted, frozen, tendons excised, then lyophilized for a further 48 h. Muscles were then weighed, transferred to scintillation vials and digested with 0.5 ml 1 M NaOH at 60° C. for 1 h. Scintillation fluid (4 ml) was added to each vial, and samples counted in a Beckman liquid scintillation spectrometer, preset to count ^14C and ^3H channels simultaneously. The amount of each isotope present in the samples was determined and used to calculate the extracellular space and the intracellular concentration of [^3H]DOG. The accumulation of intracellular [^3H]DOG, a measure of muscle glucose uptake, was calculated by subtracting the concentration of [^3H]DOG in the extracellular space from the corresponding total muscle [^3H]DOG]; extracellular [^3H]DOG was quantified by measuring the muscle concentration of [^14C]sorbitol.
# Data analysis. One way ANOVA, Dunnett's Multiple Comparisons Test, and unpaired Student's t-tests were used to calculate the statistical significance of differences, as appropriate. Dose-response curves were fitted to a sigmoidal dose-response algorithm, as follows: Y=minimum+(maximum−minimum)/([…] log ^(EC50^−X), for 2-DOG-uptake; and by a four parameter logistic model, Y=minimum+(maximum−minimum)/(1+10 log ^(EC50^−X)Hill-Coefficient) for total glycogen and [^14C]glucose incorporation. Calculations were performed using Prism v2.0 (GraphPad Software, San Diego, Calif.) to derive values for half-maximal effective concentration (EC50). Displacement curves derived for competition of bound radioligand with cold ligand in transfected cells were calculated according to a one site competition fit using Prism v2.0.
# [11] = biological target: T2, murine ramp 1/C1ins- receptor; test: displacement of 20 nM [^3H]amylin, L6 myoblasts co-transfected with murine ramp 1 and C1ins-
# Source text: (§3) Cells were then washed and bound radioactivity determined by liquid scintillation counting. […] Each point represents the mean±SEM of three independent myoblast transfections from an experiment repeated at least twice.
# [12] = biological target: T2, murine ramp 1/C1ins- receptor; test: displacement of 20 nM [^3H]amylin, co-transfected L6 myoblasts
# Source text: as §3
# [13] = biological target: T2, murine ramp 1/C1ins- receptor; test: displacement of 20 nM [^3H]amylin, co-transfected L6 myoblasts; Cheng and Prusoff with Kd […]
# Source text: as §3
# 95% confidence intervals (nM) are bracketed.
molecule,measurement,setting,value
rat CGRP-1 (ligand),"free fatty acid content in incubated rat soleus muscle, EC50 of the second phase",[1],45 nM
same,"free fatty acid content in incubated rat soleus muscle, EC50 of the first phase",[2],0.00025 nM
same,"EC50, ^14C-glucose incorporation into glycogen, with insulin (23.7 nM)",[3],0.7 nM
same,"EC50, ^14C-glucose incorporation into glycogen, without insulin",[3],3.1 nM
same,"EC50, total glycogen content, without insulin",[3],3.2 nM
same,"lipolysis in skeletal muscle, EC50 as summed up in the description",[4],0.00026 nM
same,"NEFA content of soleus muscle from high fat-fed rats, EC50",[5],0.0007 nM
same,"decrease in intramuscular triglyceride of soleus muscle from high fat-fed rats, EC50",[5],0.00025 nM
rat amylin (from UniProt P12969) (ligand),"EC50, total glycogen content, without insulin",[3],8 nM
same,"free fatty acid content in incubated rat soleus muscle, EC50",[6],7.8 nM
rat amylin-(8-37),cAMP content with 100 nM CGRP plus antagonist,soleus muscle [7],2.9 ± 0.8 pmol/mg
same,antagonism of peptide-evoked cAMP production,ramp 1/C1ins− receptor,only a modest decrease in cAMP production
same,free fatty acid concentration in conjunction with 1 pM CGRP,"soleus muscle [8]; 100 pM antagonist + 1 pM CGRP, CGRP alone 166±18",86±20 nmol/g
same,free fatty acid content in conjunction with 100 nM CGRP,"soleus muscle [8]; 10 μM antagonist or maximally stimulating insulin (23.7 nM) + 100 nM CGRP, CGRP alone 334±52",34 ± 5 nmol/g
same,free fatty acid content in conjunction with 100 nM amylin,"soleus muscle [8]; 10 μM antagonist or maximally stimulating insulin (23.7 nM) + 100 nM amylin, amylin alone 216±26",18.5 ± 6 nmol/g
same,cAMP content with 100 nM CGRP1 plus antagonist,soleus muscle [9]; 10-fold molar excess of antagonist,4.3 ± 0.8 pmol/mg
same,cAMP content with 1 pM CGRP plus antagonist,"soleus muscle [9]; 10-molar excess of antagonist, CGRP alone 8.6±0.4",4.4±0.4 pmol/mg
same,glucose uptake in presence of amylin (10 nM) and insulin (23.7 nM) plus antagonist,soleus muscle [10],no significant effect
B1,IC50,[11],62 nM
same,"fold lower Kl than ^8,37amylin",[12],~20 fold
same,Ki,[13],19.5 nM
